# According to the nanobody polyreactivity screen of Harvey et al. (2022):
# Test: yeast display, Sf9 membrane polyspecificity reagent, FACS + sequencing; frameworks hold sequencing errors
# Summary of the method: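 A synthetic nanobody library was expressed on Saccharomyces cerevisiae BJ5465 by galactose induction for 36–48 hours. The library was stained for 1 hour at 4 °C with 10% biotinylated, detergent-solubilized Sf9 membrane reagent and enriched with streptavidin microbeads before FACS. Low and high (top ~1%) gates were set on anti-HA fluorescence for expression and streptavidin fluorescence for reagent binding, and each polyreactivity label reflects the gate of origin.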
row,Sequence,polyreactivity (PSR sort gate)
1,QVQLVESGGGLVQAGGSLRLSCAASGLTFEHNAMGWYRQAPGKEREFVAVISWRGTSTYYADSVKGRFTISRDNAKNTVYLQMNSLKPEATAVYYCAAGYRGVANRKWIYYYWGQGTQVTVSS,high polyreactivity
2,QVQLVESGGGLVQAGGSLRLSCAASGSIFASYAMGRYRQAPGKERELVAAISRSGGSTYYADSVKGRFTISRDNAKNTVYLQMNSLKPEDTAVYYCATGKIREDDYWGQGTQVTVSS,high polyreactivity
3,QVQLVESGGGLVQAGGSLRLSCAASGFIFYYYAMGWYRQAPGKERELVAGIDKTGGSTYYADSVKGRFTISRDNAKNTVYFQMNSLKPEDTAVYYCAAGYFFPRLRFRNYAYVYWGQGTQVTVSS,high polyreactivity
4,QVQLVESGGGLVQAGGSLRLSCAASGRIFFTYTMGWYRQAPGKERELVAAITGGGARTYYADSVKGRFTISRDNSKNTVYLQMNSLKPEDTAVYYCAKGWQRIGFYYWGQGTQVTVSS,high polyreactivity
5,QVQLVESGGGLVQAGGSLRLSCAASGSTFRYNAMGWYRQAPGKERELVATITSGGYTNYADSVKGRFTISRDNAKNSVYLQMNSLKPVDSAVYYCATDSLFRTYVEWDRKFDYWGQGTQVTVSS,high polyreactivity
6,QVQLVESGGGLVQAGGSLRISCAASGRIFYVYAMGWYRQAPGKERELVAAITSGGSTYYADSVKGRFTISRDNAKNTVYLQMNSLKPEDTAVYYCAAYNRGRFRPYRFEYWGQGTQVTVSS,high polyreactivity
7,QVQLQESGGGLVQAGGSLRLTCAASGNISVTGFMGCYRQAPGKERELVASIGIGGTTYYADSVKGRFSISRDNAKNTVYLEMHSLKPEDTAVYYCAARYLYYAYSYWGQGTQVTVSS,low polyreactivity
8,QVQLVESGGGLVQAGGSLRLSCAASGSILPLYAMGWYRQAPGKERELVATISNAGSTTYADSVKGRFTISRDNAKNTVYLQMHSLKPEVTAVYYCNAESEWGWVYVGYDYWGQGTQVTVSS,low polyreactivity
9,QLQLVESGGGLVQAGCSLRLICAASGFTFYRNAMGWYRQAPGKEREFVAAISSSGGGTYYADSVKGRFTISRDNAKNTVYLQMNSLKPDDTAVYYCAAKYPQKTTVNSYGNSFYYWGQGTQVTVSS,high polyreactivity
10,QVQLVESGGGLVQAGGSLRLSCAASGRTFRSYAMGWYRQAPGKERELVAGITTSGGSTYYADSVKGRFTISRDNAKNTVYLQMNSLKPEDTAVYYCNARSWYSFHPHDYWGQGTQVTVSS,high polyreactivity
11,QVQLVESGAGLVQAGGSLRLSCAASGFTLVLNAMGGYSQAPGKERELVAAIRRSAGSTYYADSVKGRFTISRDNAKNTVYLQMNSLKPEDTAVYYSNADYTYTDRRFAPAGGWYYYWGQGTQVTVSS,low polyreactivity
12,QVQLVESGGGLVQAGGSVRLSCAASGRIFGYYAMGWYRQAPGKERELVAAINWNVGSTYYADSVKGRFTISRDNAKNTVYLQMNSLKPEDTAVYYCAAVGRYSRLLGKYDYWGQGTQVTVSS,low polyreactivity
13,QVQLVESGGGLVQAGGSLRLSCAASGRIFSWYAMGWYRQAPGKERELVAAITVRGSTYYADSVKGRFTISRDNAKNTVYLQMNSLKPEDTAVYYCAAGGYPGTTYYGYDYWGQGTQVTVSS,low polyreactivity
14,QVQLVESWGGLVQAGGSLRLSCAASGRIFHRYAMGWYRQAPGKEREFVAAITYSTGTTYYADSVKGRFTISRDNAKITVYLQMNSLKPEDPAVYYCAKDRRFWHKTWFAYGYDYWGQGTQVTVSS,low polyreactivity
15,QVQLVESGGGLVQAGGSLRLSCAASGSTFVSNAMGWYRQAPGKERELVAAISTSGGSTYYADSVKGRFTISRDNAKNTVYLQMNSLKPEDTAVYYCAKLLARGFRIWQDYDYWGQGTEVTVSS,low polyreactivity
16,QVQLVESGGGLVQAGGSLRLSCAASVSTFKPYAMGWYRQAPGKERELVSAISGSGGSTYYADSVKGRFTISRDNAKNTVYLQMNSLKPEDTAVYYCAARFYVSYYYFGYEYWGQGTQVTVSS,high polyreactivity
17,QVQLVESGGGLVQAGGSLRLSCAASGRTFRPYAMGWYRQAPGKERELVAAITSCGSTYYADSVKGRFTISRDNAKNTVYLQMNSLKPEDTAVYYCNAKYYYQPPYDYWGQGTQVTVSS,low polyreactivity
18,QVQLVESGGGLVQAGGSLRLSCAASGYILYPYAMGWYRQAPGKERELVAAIRQRGGSTYYADSVKGRFTISRDYAKNTVYLQMNSLKPEDTAVYYCAAYLSPKRALTRGYGYWGQGTQVTVSS,high polyreactivity
19,QVQLVESGGGLVQAGGSLRLSCAASGSTFLYYAMGWYRQAPGKERELVASITGSGSNTYYADSVKGRFTISRDNAKNTVYLQMNSLKREDTAVYYCATDPQSDIPSWLWYWGEYDYWGHGTQVTVSS,low polyreactivity
20,QVQLVESGGGLVQAGGTLRLSCAATGRILHIYAMGWYRQAPGKERELVAVISTGGGDTYYADSVKGRFTISRDNANNTVYLQMNSRKPEDTAVYYCAADGYWAGYGYDYWGQGTQVTVSS,high polyreactivity
21,QVQLVESGGGLVQAGGSLRLSCSDSGFIYRMYAMGWYRQAHGKETELVSAISSDASTNYADSVKGRFTISRDNAKNTVYLQMNSLKPEDTAVYYCAAAVKRGYAQSFISDGYGYWGQGTQVTVSS,low polyreactivity
